# Experimental data reported in publication PMC11231340, “Werner helicase interacting protein 1 contributes to G-quadruplex processing in human cells”.
# T1: GST-WRNIP1 (Homo sapiens, UniProt Q96S55 1-665)
# T1 sequence: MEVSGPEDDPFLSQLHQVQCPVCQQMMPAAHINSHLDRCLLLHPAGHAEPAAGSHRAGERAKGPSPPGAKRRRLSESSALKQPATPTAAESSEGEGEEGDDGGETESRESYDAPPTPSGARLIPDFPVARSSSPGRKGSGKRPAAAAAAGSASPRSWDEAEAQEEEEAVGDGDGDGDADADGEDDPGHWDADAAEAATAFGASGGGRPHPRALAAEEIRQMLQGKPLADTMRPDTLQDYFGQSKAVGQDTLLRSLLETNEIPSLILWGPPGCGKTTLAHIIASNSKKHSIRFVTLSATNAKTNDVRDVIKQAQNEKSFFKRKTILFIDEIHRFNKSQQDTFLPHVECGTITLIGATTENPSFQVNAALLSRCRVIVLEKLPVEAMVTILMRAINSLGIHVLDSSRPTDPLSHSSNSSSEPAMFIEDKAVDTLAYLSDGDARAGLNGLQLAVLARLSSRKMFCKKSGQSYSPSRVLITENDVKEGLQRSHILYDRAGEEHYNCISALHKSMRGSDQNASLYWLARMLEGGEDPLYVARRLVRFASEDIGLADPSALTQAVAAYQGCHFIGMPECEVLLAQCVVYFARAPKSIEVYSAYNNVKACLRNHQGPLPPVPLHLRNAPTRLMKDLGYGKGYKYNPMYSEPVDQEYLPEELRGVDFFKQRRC
# B1: MYC G4 ss (Myc2345) (structured_DNA)
# DNA: TGAGGGTGGGTAGGGTGGGTGCGTCTGCGGCTGGCTCGAGGC
# B2: C-rich control (ssDNA)
# DNA: ACTCCCACCCATCCCACCCACGCAGACGCCGACCGAGCTCCG
# B3: MYC G4 partial duplex (structured_DNA)
# DNA 1: B1 DNA
# DNA 2: TTTGCCTCGAGCCAGCCGCAGACG
# B4: CEB G4 ss (CEB25) (structured_DNA)
# DNA: AAGGGTGGGTGTAAGTGTGGGTGGGTGCGTCTGCGGCTGGCTCGAGGC
# B5: CEB G4 partial duplex (structured_DNA)
# DNA 1: B4 DNA
# DNA 2: TTTGCCTCGAGCCAGCCGCAGACG
# What was measured:
# [1] = target: T1, GST-WRNIP1; assay: fluorescence anisotropy; Hill n 0.55; Anisotropy: 10 nM DNA, 50 mM Tris-HCl pH 7.5, 90 mM KCl, 5 mM EDTA, with or without 1 mM ATP and 1.25 mM MgCl2, 25 C; EMSA: 50 nM DNA, 50 mM Tris-HCl pH 7.5, 150 mM KCl, 15 min 25 C, 6% native gel; DNA folded in 25 mM Tris-HCl pH 7.5, 50 mM KCl; details: protein: recombinant; (GST fusion); label: 5' FITC; intramolecular G4 with 3' ssDNA tail of 21 nt
# [2] = target: T1, GST-WRNIP1; assay: fluorescence anisotropy; 1 mM ATP; Hill n 0.66; Anisotropy: 10 nM DNA, 50 mM Tris-HCl pH 7.5, 90 mM KCl, 5 mM EDTA, with or without 1 mM ATP and 1.25 mM MgCl2, 25 C; EMSA: 50 nM DNA, 50 mM Tris-HCl pH 7.5, 150 mM KCl, 15 min 25 C, 6% native gel; DNA folded in 25 mM Tris-HCl pH 7.5, 50 mM KCl; details: protein: recombinant; (GST fusion); label: 5' FITC; intramolecular G4 with 3' ssDNA tail of 21 nt
# [3] = target: T1, GST-WRNIP1; assay: fluorescence anisotropy; no ATP (ATP comparison series); Hill n 0.72; Anisotropy: 10 nM DNA, 50 mM Tris-HCl pH 7.5, 90 mM KCl, 5 mM EDTA, with or without 1 mM ATP and 1.25 mM MgCl2, 25 C; EMSA: 50 nM DNA, 50 mM Tris-HCl pH 7.5, 150 mM KCl, 15 min 25 C, 6% native gel; DNA folded in 25 mM Tris-HCl pH 7.5, 50 mM KCl; details: protein: recombinant; (GST fusion); label: 5' FITC; intramolecular G4 with 3' ssDNA tail of 21 nt
# [4] = target: T1, GST-WRNIP1; assay: fluorescence anisotropy; Hill n 0.96; Anisotropy: 10 nM DNA, 50 mM Tris-HCl pH 7.5, 90 mM KCl, 5 mM EDTA, with or without 1 mM ATP and 1.25 mM MgCl2, 25 C; EMSA: 50 nM DNA, 50 mM Tris-HCl pH 7.5, 150 mM KCl, 15 min 25 C, 6% native gel; DNA folded in 25 mM Tris-HCl pH 7.5, 50 mM KCl; details: protein: recombinant; (GST fusion); label: 5' FITC
# [5] = target: T1, GST-WRNIP1; assay: fluorescence anisotropy; Hill n 0.88; Anisotropy: 10 nM DNA, 50 mM Tris-HCl pH 7.5, 90 mM KCl, 5 mM EDTA, with or without 1 mM ATP and 1.25 mM MgCl2, 25 C; EMSA: 50 nM DNA, 50 mM Tris-HCl pH 7.5, 150 mM KCl, 15 min 25 C, 6% native gel; DNA folded in 25 mM Tris-HCl pH 7.5, 50 mM KCl; details: protein: recombinant; (GST fusion); label: 5' FITC on strand 1; 21 bp duplex at 3' end of strand 1; 5' ss G4 overhang 21 nt; strand 2 5' TTT overhang
# [6] = target: T1, GST-WRNIP1; assay: fluorescence anisotropy; Hill n 0.95; Anisotropy: 10 nM DNA, 50 mM Tris-HCl pH 7.5, 90 mM KCl, 5 mM EDTA, with or without 1 mM ATP and 1.25 mM MgCl2, 25 C; EMSA: 50 nM DNA, 50 mM Tris-HCl pH 7.5, 150 mM KCl, 15 min 25 C, 6% native gel; DNA folded in 25 mM Tris-HCl pH 7.5, 50 mM KCl; details: protein: recombinant; (GST fusion); label: 5' FITC; intramolecular G4 with 3' ssDNA tail
# [7] = target: T1, GST-WRNIP1; assay: fluorescence anisotropy; Hill n 1.1; Anisotropy: 10 nM DNA, 50 mM Tris-HCl pH 7.5, 90 mM KCl, 5 mM EDTA, with or without 1 mM ATP and 1.25 mM MgCl2, 25 C; EMSA: 50 nM DNA, 50 mM Tris-HCl pH 7.5, 150 mM KCl, 15 min 25 C, 6% native gel; DNA folded in 25 mM Tris-HCl pH 7.5, 50 mM KCl; details: protein: recombinant; (GST fusion); label: 5' FITC on strand 1; 21 bp duplex at 3' end of strand 1; 5' ss G4 overhang 27 nt; strand 2 5' TTT overhang
binder,measurement,setting,value
B1,Kd,[1],184 ± 36 nM
same,Kd,[2],183 ± 52 nM
same,Kd,[3],175 ± 43 nM
B2,Kd,[4],3500 ± 511 nM
B3,Kd,[5],108 ± 45 nM
B4,Kd,[6],65 ± 6 nM
B5,Kd,[7],221 ± 44 nM
